Values quoted from earlier work as cited in paper PMC5209733, “U24 from Roseolovirus interacts strongly with Nedd4 WW Domains” (Scientific Reports, 2017).

How the values were obtained:
[1] = molecular target: Fyn SH3; settings: association with Fyn SH3
Excerpt: One possible way in which U24 may be implicated in MS is through the mimicry of myelin basic protein (MBP) because the two proteins share a seven amino acid stretch that contains a PxxP motif (Fig. 1a). This segment is essential for MBP to participate in Fyn-mediated signalling pathways by a direct but non-canonical association with the Fyn-SH3 domain[11]. Disruption of these signalling pathways has a large impact on oligodendrocyte differentiation and maturation, processes that are perturbed in MS patients. Within this PxxP motif and just before it are two threonine residues (T95 and T98), wh ...

[2] = tested on: human Nedd4 family E3 ubiquitin ligases: Nedd4-1, Nedd4-2, AIP4, Smurf1, Smurf2, WWP1, and WWP2; settings: pull-down assays
Excerpt: However, precise binding affinities are hard to extract from such results. […] We have focussed our studies on human Nedd4 WW domains (hNedd4 and hNedd4L, Fig. 1b) given their relevance in the CNS, noted above. As controls, we have u ...

[3] = tested on: Nedd4-WW1 domain; settings: found previously
Procedure: In order to compare with previously reported results, experiments were carried out on four relevant WW domains: the second and the third WW domain of rat Nedd4 (rNedd4-WW2 and rNedd4-WW3/4, where WW3/4 is a homologue of the fourth WW domain in human), and the pair of third WW domains from human Nedd4 (hNedd4-WW3* and hNedd4L-WW3*). The WW3 domains are indicated with a star because this type of WW domain is missing in rat and mouse Nedd4[36][37]. Nedd4-WW1 domain was not used as it was found previously not to bind U24. The WW domains mentioned above were fused to the C-terminus of GST prote ...

[4] = tested on: transferrin receptor (TfR)
Excerpt: (§1) Within the proline rich region of U24 is a PY motif that is conserved in both HHV-6A and HHV-7 (Fig. 1a). […] However, the exact mechanism by which this occurs is unknown.

[5] = tested on: TCR/CD3ε receptors in T-cells; settings: PY motif responsible for down-regulation
Excerpt: as §1

B1: MBP: myelin basic protein (protein, UniProt P02686 1-304, looked up)
Myelin basic protein: MGNHAGKRELNAEKASTNSETNRGESEKKRNLGELSRTTSEDNEVFGEADANQNNGTSSQDTAVTDSKRTADPKNAWQDAHPADPGSRPHLIRLFSRDAPGREDNTFKDRPSESDELQTIQEDSAATSESLDVMASQKRPSQRHGSKYLATASTMDHARHGFLPRHRDTGILDSIGRFFGGDRGAPKRGSGKDSHHPARTAHYGSLPQKSHGRTQDENPVVHFFKNIVTPRTPPPSQGKGRGLSLSRFSWGAEGQRPGFGYGGRASDYKSAHKGFKGVDAQGTLSKIFKLGGRDSRSGSPMARR
Question: For B1, which Kd [1] is on record?
Answer: 4 to 8 µM

B2: U24: putative tail-anchored membrane protein that is unique to roseoloviruses (protein)
chain: MDPPRTPPPSYSEVLMMDVMCGQVSPHVINDTSFVECIPPPQSRPAWNLWNNRRKTFSFLVLTGLAIAMILFIVFVLYVFHVNRQRR
Question: Which “binding to Nedd4 family E3 ubiquitin ligases” value [2] does the source give for B2 here?
Answer: can bind to most of the seven human Nedd4 family E3 ubiquitin ligases

Question: What about the “binding to Nedd4-WW1” value [3] of the same molecule?
Answer: not to bind

Question: What about the “modulation of transferrin receptor” value [4] of the same molecule?
Answer: down-modulate the transferrin receptor

Question: And the “recycling of TCR/CD3ε receptors to the cell surface” value [5]?
Answer: blocked from recycling back to the cell surface
